The labels stand for the following.
B1: target 1 C6G,A18U (mixed)
RNA 1: CACCCGUGCAAAAAUGCAGGGGUCUAAAACUGAGCGGAUAACCUCUCUAUGG
RNA 2: GGGAAUGGAUCCACAUCUACGAAUUCGUACCAUUGAGAGGUUAUCGGCUCACCGAGAUCGGAAGAGCACACGU
B2: target 1 C6G,A14U (mixed)
RNA 1: CACCCGUGCAAAAAUGCAGGGGUCUAAAACUGAGCGGAUAACCUCUCUAUGG
RNA 2: GGGAAUGGAUCCACAUCUACGAAUUCGUACCAUAGAGUGGUUAUCGGCUCACCGAGAUCGGAAGAGCACACGU
B3: target 1 insC 3' of 22,insU 3' of 4 (mixed)
RNA 1: CACCCGUGCAAAAAUGCAGGGGUCUAAAACUGAGCGGAUAACCUCUCUAUGG
RNA 2: GGGAAUGGAUCCACAUCUACGAAUUCGUACCCAUAGAGAGGUUAUCCGCUUCACCGAGAUCGGAAGAGCACACGU
B4: target 2 MT 5'PFS ACU 3'PFS CAA (mixed)
RNA 1: CACCCGUGCAAAAUUGCAGGGGUCUAAAACCUUCUCCAAAUUGUUUCAUCCU
RNA 2: GGGAAUGGAUCCACAUCUACGAAUUCACUAGGAUGAAACAAUUUGGAGAAGCAAAGAUCGGAAGAGCACACGU
B5: target 2 MT 5'PFS GAG 3'PFS AUU (mixed)
RNA 1: CACCCGUGCAAAAUUGCAGGGGUCUAAAACCUUCUCCAAAUUGUUUCAUCCU
RNA 2: GGGAAUGGAUCCACAUCUACGAAUUCGAGAGGAUGAAACAAUUUGGAGAAGAUUAGAUCGGAAGAGCACACGU
B6: target 2 MT 5'PFS GAC 3'PFS CUU (mixed)
RNA 1: CACCCGUGCAAAAUUGCAGGGGUCUAAAACCUUCUCCAAAUUGUUUCAUCCU
RNA 2: GGGAAUGGAUCCACAUCUACGAAUUCGACAGGAUGAAACAAUUUGGAGAAGCUUAGAUCGGAAGAGCACACGU
B7: target 2 MT 5'PFS GAG 3'PFS AUC (mixed)
RNA 1: CACCCGUGCAAAAUUGCAGGGGUCUAAAACCUUCUCCAAAUUGUUUCAUCCU
RNA 2: GGGAAUGGAUCCACAUCUACGAAUUCGAGAGGAUGAAACAAUUUGGAGAAGAUCAGAUCGGAAGAGCACACGU
B8: target 2 MT 5'PFS GCA 3'PFS CAG (mixed)
RNA 1: CACCCGUGCAAAAUUGCAGGGGUCUAAAACCUUCUCCAAAUUGUUUCAUCCU
RNA 2: GGGAAUGGAUCCACAUCUACGAAUUCGCAAGGAUGAAACAAUUUGGAGAAGCAGAGAUCGGAAGAGCACACGU
B9: target 2 MT 5'PFS CUU 3'PFS UGA (mixed)
RNA 1: CACCCGUGCAAAAUUGCAGGGGUCUAAAACCUUCUCCAAAUUGUUUCAUCCU
RNA 2: GGGAAUGGAUCCACAUCUACGAAUUCCUUAGGAUGAAACAAUUUGGAGAAGUGAAGAUCGGAAGAGCACACGU
B10: target 2 MT 5'PFS CUG 3'PFS CGA (mixed)
RNA 1: CACCCGUGCAAAAUUGCAGGGGUCUAAAACCUUCUCCAAAUUGUUUCAUCCU
RNA 2: GGGAAUGGAUCCACAUCUACGAAUUCCUGAGGAUGAAACAAUUUGGAGAAGCGAAGAUCGGAAGAGCACACGU
B11: target 2 MT 5'PFS GAG 3'PFS AUA (mixed)
RNA 1: CACCCGUGCAAAAUUGCAGGGGUCUAAAACCUUCUCCAAAUUGUUUCAUCCU
RNA 2: GGGAAUGGAUCCACAUCUACGAAUUCGAGAGGAUGAAACAAUUUGGAGAAGAUAAGAUCGGAAGAGCACACGU
B12: target 2 MT 5'PFS AUA 3'PFS AGG (mixed)
RNA 1: CACCCGUGCAAAAUUGCAGGGGUCUAAAACCUUCUCCAAAUUGUUUCAUCCU
RNA 2: GGGAAUGGAUCCACAUCUACGAAUUCAUAAGGAUGAAACAAUUUGGAGAAGAGGAGAUCGGAAGAGCACACGU
B13: target 2 MT 5'PFS GCC 3'PFS UUA (mixed)
RNA 1: CACCCGUGCAAAAUUGCAGGGGUCUAAAACCUUCUCCAAAUUGUUUCAUCCU
RNA 2: GGGAAUGGAUCCACAUCUACGAAUUCGCCAGGAUGAAACAAUUUGGAGAAGUUAAGAUCGGAAGAGCACACGU
B14: target 2 MT 5'PFS GCA 3'PFS CAA (mixed)
RNA 1: CACCCGUGCAAAAUUGCAGGGGUCUAAAACCUUCUCCAAAUUGUUUCAUCCU
RNA 2: GGGAAUGGAUCCACAUCUACGAAUUCGCAAGGAUGAAACAAUUUGGAGAAGCAAAGAUCGGAAGAGCACACGU
B15: target 2 MT 5'PFS AUA 3'PFS AGA (mixed)
RNA 1: CACCCGUGCAAAAUUGCAGGGGUCUAAAACCUUCUCCAAAUUGUUUCAUCCU
RNA 2: GGGAAUGGAUCCACAUCUACGAAUUCAUAAGGAUGAAACAAUUUGGAGAAGAGAAGAUCGGAAGAGCACACGU
B16: target 2 MT 5'PFS ACU 3'PFS CAC (mixed)
RNA 1: CACCCGUGCAAAAUUGCAGGGGUCUAAAACCUUCUCCAAAUUGUUUCAUCCU
RNA 2: GGGAAUGGAUCCACAUCUACGAAUUCACUAGGAUGAAACAAUUUGGAGAAGCACAGAUCGGAAGAGCACACGU
B17: target 2 MT 5'PFS GCA 3'PFS CAC (mixed)
RNA 1: CACCCGUGCAAAAUUGCAGGGGUCUAAAACCUUCUCCAAAUUGUUUCAUCCU
RNA 2: GGGAAUGGAUCCACAUCUACGAAUUCGCAAGGAUGAAACAAUUUGGAGAAGCACAGAUCGGAAGAGCACACGU
B18: target 2 MT 5'PFS GCC 3'PFS UUU (mixed)
RNA 1: CACCCGUGCAAAAUUGCAGGGGUCUAAAACCUUCUCCAAAUUGUUUCAUCCU
RNA 2: GGGAAUGGAUCCACAUCUACGAAUUCGCCAGGAUGAAACAAUUUGGAGAAGUUUAGAUCGGAAGAGCACACGU
B19: target 2 MT 5'PFS GCA 3'PFS CAU (mixed)
RNA 1: CACCCGUGCAAAAUUGCAGGGGUCUAAAACCUUCUCCAAAUUGUUUCAUCCU
RNA 2: GGGAAUGGAUCCACAUCUACGAAUUCGCAAGGAUGAAACAAUUUGGAGAAGCAUAGAUCGGAAGAGCACACGU
B20: target 2 MT 5'PFS GAC 3'PFS CUC (mixed)
RNA 1: CACCCGUGCAAAAUUGCAGGGGUCUAAAACCUUCUCCAAAUUGUUUCAUCCU
RNA 2: GGGAAUGGAUCCACAUCUACGAAUUCGACAGGAUGAAACAAUUUGGAGAAGCUCAGAUCGGAAGAGCACACGU
B21: target 2 MT 5'PFS GUC 3'PFS CCG (mixed)
RNA 1: CACCCGUGCAAAAUUGCAGGGGUCUAAAACCUUCUCCAAAUUGUUUCAUCCU
RNA 2: GGGAAUGGAUCCACAUCUACGAAUUCGUCAGGAUGAAACAAUUUGGAGAAGCCGAGAUCGGAAGAGCACACGU
B22: target 2 MT 5'PFS AGA 3'PFS CUU (mixed)
RNA 1: CACCCGUGCAAAAUUGCAGGGGUCUAAAACCUUCUCCAAAUUGUUUCAUCCU
RNA 2: GGGAAUGGAUCCACAUCUACGAAUUCAGAAGGAUGAAACAAUUUGGAGAAGCUUAGAUCGGAAGAGCACACGU
B23: target 2 MT 5'PFS UAA 3'PFS ACU (mixed)
RNA 1: CACCCGUGCAAAAUUGCAGGGGUCUAAAACCUUCUCCAAAUUGUUUCAUCCU
RNA 2: GGGAAUGGAUCCACAUCUACGAAUUCUAAAGGAUGAAACAAUUUGGAGAAGACUAGAUCGGAAGAGCACACGU
B24: target 2 MT 5'PFS CUG 3'PFS CGG (mixed)
RNA 1: CACCCGUGCAAAAUUGCAGGGGUCUAAAACCUUCUCCAAAUUGUUUCAUCCU
RNA 2: GGGAAUGGAUCCACAUCUACGAAUUCCUGAGGAUGAAACAAUUUGGAGAAGCGGAGAUCGGAAGAGCACACGU
B25: target 2 MT 5'PFS CGA 3'PFS UGC (mixed)
RNA 1: CACCCGUGCAAAAUUGCAGGGGUCUAAAACCUUCUCCAAAUUGUUUCAUCCU
RNA 2: GGGAAUGGAUCCACAUCUACGAAUUCCGAAGGAUGAAACAAUUUGGAGAAGUGCAGAUCGGAAGAGCACACGU
B26: target 2 MT 5'PFS ACU 3'PFS CAU (mixed)
RNA 1: CACCCGUGCAAAAUUGCAGGGGUCUAAAACCUUCUCCAAAUUGUUUCAUCCU
RNA 2: GGGAAUGGAUCCACAUCUACGAAUUCACUAGGAUGAAACAAUUUGGAGAAGCAUAGAUCGGAAGAGCACACGU
B27: target 2 MT 5'PFS CUU 3'PFS UGC (mixed)
RNA 1: CACCCGUGCAAAAUUGCAGGGGUCUAAAACCUUCUCCAAAUUGUUUCAUCCU
RNA 2: GGGAAUGGAUCCACAUCUACGAAUUCCUUAGGAUGAAACAAUUUGGAGAAGUGCAGAUCGGAAGAGCACACGU

For orientation: Kd means a measure of binding affinity in units of concentration.

For the data set, the target named is T1, EsCas13d, nuclease-dead (Eubacterium siraeum, UniProt B0MS50, R295A;H300A;R849A;H854A).
T1 sequence: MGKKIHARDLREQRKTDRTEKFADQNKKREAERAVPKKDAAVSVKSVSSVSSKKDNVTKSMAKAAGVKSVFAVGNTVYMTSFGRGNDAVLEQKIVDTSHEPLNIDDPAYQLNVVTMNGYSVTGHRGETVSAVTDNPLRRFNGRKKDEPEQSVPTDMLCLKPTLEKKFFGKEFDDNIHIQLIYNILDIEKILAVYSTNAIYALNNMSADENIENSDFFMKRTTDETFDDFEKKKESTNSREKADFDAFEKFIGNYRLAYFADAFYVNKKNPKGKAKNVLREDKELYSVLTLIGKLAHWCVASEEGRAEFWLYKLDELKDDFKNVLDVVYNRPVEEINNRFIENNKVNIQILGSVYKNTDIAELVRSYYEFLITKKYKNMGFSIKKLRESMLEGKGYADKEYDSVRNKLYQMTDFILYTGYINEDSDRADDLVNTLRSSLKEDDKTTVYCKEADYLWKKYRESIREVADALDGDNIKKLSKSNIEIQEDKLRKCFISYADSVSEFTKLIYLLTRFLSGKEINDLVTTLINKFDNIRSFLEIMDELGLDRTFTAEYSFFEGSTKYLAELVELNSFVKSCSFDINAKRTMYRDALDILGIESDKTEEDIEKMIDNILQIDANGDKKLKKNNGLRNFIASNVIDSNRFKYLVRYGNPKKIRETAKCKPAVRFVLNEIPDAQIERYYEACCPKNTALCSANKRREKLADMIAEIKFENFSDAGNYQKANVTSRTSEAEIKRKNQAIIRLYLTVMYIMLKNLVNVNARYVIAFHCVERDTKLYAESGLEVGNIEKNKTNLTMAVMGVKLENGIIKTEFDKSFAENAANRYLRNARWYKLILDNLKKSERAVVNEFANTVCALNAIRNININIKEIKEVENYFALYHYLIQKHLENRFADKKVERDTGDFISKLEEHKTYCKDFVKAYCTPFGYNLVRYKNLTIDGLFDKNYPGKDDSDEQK
In words: crRNA (strand 1, pre-loaded); Mg2+; 40 mM Tris-HCl pH 7.5, 150 mM NaCl, 6 mM MgCl2, 1 mM DTT, 0.1% Tween-20, 0.2 mg/ml BSA; 25 C; 10 min per concentration, then washed. The note with it: tags: His6-TwinStrep-SUMO cleaved; N-terminal SNAP kept (SNAP-Surface 488); label: 3' end held by stalled T7 RNA polymerase.
Turning to B1, the Kd amounted to 29 ± 4 nM.

B2 came in with a dissociation constant (Kd) of 41 ± 14 nM.

In turn, B3 registered a Kd of 15.1 ± 1.6 nM.

As to B4, the Kd was determined as 3.7 ± 0.8 nM.

In turn, B5 gave a dissociation constant Kd of 5.6 ± 0.4 nM.

In turn, B6 gave an equilibrium dissociation constant (Kd) of 12.5 ± 1.3 nM.

B7 showed a dissociation constant Kd of 9.9 ± 1.4 nM.

For B8, the Kd was determined as 7.9 ± 1.5 nM.

In turn, B9 gave a dissociation constant (Kd) of 6.5 ± 2 nM.

As for B10, binding was put at a Kd of 3.4 ± 0.6 nM.

As for B11, the Kd was determined as 4.8 ± 0.5 nM.

B12 registered a Kd of 7.6 ± 1.1 nM.

For B13, binding was put at a Kd of 25 ± 7 nM.

B14 had a Kd of 7.7 ± 1.1 nM.

Molecule B15 gave a dissociation constant (Kd) of 6.1 ± 1.1 nM.

Regarding B16, the equilibrium dissociation constant (Kd) came out at 4.1 ± 0.6 nM.

The molecule B17 displayed a Kd of 7.5 ± 1 nM.

B18 came in with a dissociation constant Kd of 41 ± 11 nM.

With B19, binding was put at a Kd of 8.8 ± 1.8 nM.

As for B20, the dissociation constant Kd stood at 12.1 ± 1.3 nM.

For the molecule B21, the dissociation constant Kd amounted to 14.9 ± 1 nM.

The molecule B22 returned a Kd of 8.4 ± 1.2 nM.

As for B23, the Kd worked out at 9 ± 1.4 nM.

The molecule B24 showed a Kd of 2.31 ± 0.31 nM.

Molecule B25 came in with a Kd of 6.8 ± 1.5 nM.

B26 came in with a dissociation constant Kd of 3.1 ± 0.5 nM.

B27 returned a dissociation constant (Kd) of 4.5 ± 0.9 nM.

Source of the values: publication PMC10786891, “Massively parallel profiling of RNA-targeting CRISPR-Cas13d”.
